Assay results: the DeepSol protein solubility set

test: soluble on expression in E. coli; label from the status in PepcDB or PDB records

Sequence | soluble on expression in E. coli
MSTRYPTLTRSGFVLPERMKASYEGAADGRRSATWDAPDTGVNSLIMPALRNLRSRSRAAVRNDPYAANAIDRRVSNLIGTGITPQPRIADKELRRIFQETWEDWVDESDADQLTDFYGQQALIARTVEQSGECFVRLRPRRMDDGLAVPLQLQCLAPEFVPHDKFEVTSTGNIIRAGIEFNGFGKRVAYWCYRSHPSDMTSINAGYNMLVRIPASQMLHIFEPVEPGQLRGVPRLAPVLKRLRSLDNFDDAVLFRQEVANLFAGFIRKPSADGPPMLDPLTGAPIKIGGDGFTPMVALEPGTMQELLPGEEVEFSTPPDGGNNYPDFMRQQLMAAAAGAGLPYELMTGDMRGVNDRTIRVVLNEFRRRLEQLQFSVYVHQLCRPVRAAWMDMAVLSGALQLDDYAARRREYLRTRWVPQGWSYIHPVQDVQSRTMEINAGLASRSEMCLRTGTDAEIVDEENAADAARARGLGLNYSTLSAFDEDPDEKENP | not soluble
TSTDAAGGDSYRVGINQLVQHPALDAATTGFKEAFEEAGVDVTFDEQNANGEQGTALTISQQFASDNLDLVLAVATPAAQATAQNITDIPVLFTAVTDAVSAELVDSNEAPGGNVTGTSDIAPIEQQLELLQQLVPDAKSIGIVYASGEVNSQVQVDEVTKAAEPLGLSVNTQTVTTVNEIQQAVEALGDVDVIYVPTDNMVVSGISSLVQVAEQKQIPVIGAESGTVEGGALATLGIDYTELGRQTGEMALRILQDGEDPATMPVETATEFTYVINEDAAERQGVEIPQEILDKAERV | not soluble
MGMPEEALKIYQELLEIEKELGNEREIALTLANIAVVKDELGEADEAIKLMSEAKDIFEKINDTKNYHIALIDLAHFYYELGEYEKAMQIIEEVLRNPLDDEIEVHGRLVESEIHSALENYKKAALSLRNALLRSGDDEYLFETAFEAVLEFIEELYNEEKLEHHHHHH | not soluble
MDERRTAEERRERMLPETMPVCPVRGSVIYPTMVMPIDAGRPISIRAIDEALARDRVLLIVSQRDKEVETPRPSDLFEVGTACNILKMRKNPDGSVQVLVQAFARVRVREWLDLGDHLEARGEVLADEPGEPILVKALVREVKDKFQALLKEGKYLAPEVAQFILNLEDPSQLADYVAFHMDFRLEDKQKVLETANVAERLRAVLVLLEAELALIETQRRIQQQVKEEIDRNQREYFLREQMKAIQRELHGEEGEQEVEEFRRKLEALDLPPVVRQEAERELNRFARMHPDSAEASVIRTYLDWIVNLPWNTRTEDNLDLERAKEILERDHYGLEKVKDRVLEYLAVRKLKAERAKRGEIPPDEVNKGPILLFVGPPGVGKTSIAKSIAEALGRKYVRVSLGGVRDESDIRGHRRTYIGAMPGRIIQGLRQAGTKNPVFLLDEVDKLGISYQGDPAAALLEVLDPAQNKEFVDHYLGVPFDLSEVMFICTANFPQNIPAPLYDRMEPIEFTSYTEQEKLEIAKRYLLPRQLKENGLEPEQVVVTEAALTRLITHYTREAGVRQLEREIGALLRKAARRILEEGKKRVRITEKDLEAYLGPPRFLPETEAREPQVGVATGMYYTPVGGDIMFVEVSVMPGKGNLILTGQLGDVMKESARAALSYAKKNALRFGIPLEKFDKSDIHIHVPAGAIPKEGPSAGVALVSALVSALTEVPVRHDIAMTGEITLTGRVLPIGGVKEKVLGARRAGIREVILPKLNEPDLSDIPKPLRQNMTFHFVEHLDQVLDLALVGGLKALEERGRRPRSARKKKELVAHA | soluble
MSDAPTVVAYLGPAGTFTEEALYKFADAGVFGDGEIEQLPAKSPQEAVDAVRHGTAQFAVVAIENFVDGPVTPTFDALDQGSNVQIIAEEELDIAFSIMVRPGTSLADVKTLATHPVGYQQVKNWMATTIPDAMYLSASSNGAGAQMVAEGTADAAAAPSRAAELFGLERLVDDVADVRGARTRFVAVQAQAA | not soluble
MFKFHLITKDGKARRGRIYTPHGVIETPVFMPVGTQGTVKAMLHKLLDEIGTQIILGNTYHLYLRPGTEIIKKAGGLHRFISWNKPILTDSGGYQVFSLAKGKFGNRKAKVKVSDEGVEFQDHLQGDKHFFTPEKVVEIQEIFGSDIMMPLDECVEYPVDKNYAEKALKRTINWLERSIKAKKREDQVLFGIVQGAFWKDLRKKAVEETLKFDEFLFGYSIGGLSVGEPKEIMYGMTEVVCELLPEKKPRYLMGVGKPEDILEAVERGVDMFDCVVPTRNARTGTLYTSQGVVDIRHSKWKEDFSPLDPECDCYTCRNFSKAYLRHLFVAEEISAYVLNTIHNLRFYLKMMEEVRKAIEEKRFKELKEKYLQRVKNKL | soluble
MGSDKIHHHHHHMHLTKTWLAQLPLTDIQQVQPVSGGDINAAFQIITRHHQYFLKVQPHNDVTFFDHEVAGLRLLGAVTKTPRVIASGTIATDGYLLLDWLATGTGSQSALGAAVAKVHHQHHAQFGLDHDFTAGKLPKINHWQTDWATFYTQQRLDVLVNLAKEHHLWSETREMHYHRLRQQLLQDSHMHTVKPSLLHGDLWSGNYLFDTTGTPVLIDPDVFYGDREMDLAMTTIFGGFDTDFYQAYQAAYPVAPGMQDRLPSYQLYYLLAHLNLFGETYGPAVDRILMQY | not soluble
MGSDKIHHHHHHLPALRLLAGPTAYEQLEANGLDQSLFTQLFAASGGPKWLAIAGLDKYLFSEFFQDREDPLYTMGASSGAWRLACMAQQDPLAAYERLEHFYIHQNYEKKPTREQVSAQVLQIVDGILGEQQGADIIANPLIRHHMVACRARHLNRIHAKFGLMMGLSMAAVSNVVNRKSLGWHFERVILSHKDAASPFRRLKDLPTKHVELTQDNIRHGLLATGSIPLLLDPVKDLQGSPKGHYYDGGITDYHFDMPLPAATGLSLYPHFYPYMSPGWFDKSLLWRKAKANYHNGLILAPSKQFIASLPFSKIPDREDFKNLDTKSRITYWQQSVQQSQVLADEFAEIVASGTIMDRIERL | not soluble
MGSDKIHHHHHHMPSPIDLHSHSTVSDGLLAPEALVAHAAEQGVKVLSLTDHDDTSGLAPAASAAAGHGMEFINGVEISVTWRRKTIHVVGLRVDPDHGPLREGLEKIRAGRHLRAENIAASLEKFGIKGSLEGAYAHARQGIIGRAHFARYLIDQGYASNMKAIFKRYLVKGKPGYVEHHWATLEEVVAWINGSGGVAVLAHPGRYDIGRSNMLLLLEEFRNLGGTAIEVVTGSHNADQFQEYAKLAHMFGLKSSMGSDYHGPGHGNIEMGRLPDLPRGCIPVWQDWPEIRSLNN | not soluble
MGSDKIHHHHHHMRIFDAHCDALLKLWEDPAREYTDDPAIEANAVRLMEGGVRAQCFAIFVGPNIPFDQKFQVALQQAELFHEKILKKHPQFSFIERWDDLLTLDADQIGAILTLEGADPFGDDPTKLKTLYRLGVRSLGLTWNQANLCADGVGEPRGGGLTEWGKAVVSLNNEHHVLTDVSHLSERGFWDVIEYAQFPVATHSNAKAICKHRRNLTDAQLKALIEAGGFIGIVFHPHFLTGTDDASIDDVMKHIEHICSLGGQKHVGFGSDFDGIPCFVDGLEHAGRFQWFMDELLKRYDEELVRGFAWDNFLKATPISYV | not soluble
MAHHHHHHMLQLTVEDLTPEAIAALEVQCKAQAEKVNQLEEAMGLLQKELDDARKKYRSTSKAVQWRRLMAEVENDEDIANITVMMQEALADFYKTMQPPDDYDESREGISFCDTDDYADLTSVETKVDEFLLAIRRLVGENCASPEDDGDRRHQRRRALLMLLVLTINAARITDTPTEDAASLMEEQQDNIASLWQTLLHTDSGLVEAEKSEWKDIVSSFLGPPYDTST | soluble
MGSDKIHHHHHHMKKPSQFDAIVVGAGPSGNAAAYTMARAGLKVLQIERGEYPGSKNVQGAILYAKALEEIIPDFRDDAPLERHIIEQRIWMLDDTSFVGTHMRSEEYNKPPYNRYTIIRAQFDKWFSSKVREAGALLICETTVKQLIMDGDQVVGVQCDREHGDVYADVVVLADGVNSTLARKAGFHGEIEAGNVALAVKEILFMPEETIRQRFNIGEDDGVVIEMVGRITDGMTGTGFLYTNKESLTIGVGCMLGDFKKNPNRTSPYVLLEKMKQHPSIAPLIAGGEMKEYCAHLIPEGGFHAIPRVYGNGWMIVGDSGGFVNAAHREGSNLAMTTGRLAAETVIHAKAAGLGYRAATLKAYKAALDQSFVMKDLHKYRDMPAVLHQNPQFFTTYPDLVARAARTMLTVDGKDKKSKEREIFSSFRKARSLAGMVGDAYKLLRAFR | not soluble
FINDVDLIITVEELDSFLEDQLLQLLGKHDISKTVYGKKNNIFPCCGEYSVDIVKTGINKVLDILKIQKIEISEKLIEKTDIIPLPVRPPNLCAGCMHRTVFYAFKEVSKDLKKQNIQIIFSGDIGCYTLGNAPPLELIDTCLCMGAGISLAGGI | not soluble
MTTLNSTPRADGFHMPAEWAPQTQVWMVWPERPDNWRLGGKPAQAAHVAIAKAIARFEPVTVAVSAAQYDNARARLDMPNIRVVEMSSNDAWVRDSGPTFVINDRGELRGVNWEFNAWGGFDGGLYAPWNLDSQVGSKVLEIERCPRYATQGFVLEGGSIHVDGEGTLITTEECLLNRNRNPHLTREQIEAVLSDYLAVDKIIWLPDGLFNDETDGHVDNFCCYIRPGEVLLAWTDDPEDPNYPRCHAALSILENTRDAQGRAFIVHKMPIPGPLFATEEECAGVDQVHGSQERNPSVRLAGSYVNFLIVNGGIIAPSFDDPMDEKAREILQKLFPEHEVVMAPGRELLLGGGNIHCLTQQQPAPFKALEHHHHHH | soluble
MGERKGQNFYYPPDFNYKTHKSLNGYHGTHALRERAKKIDQGILVIRFEMPFNIWCLGCHNHVGMGVRYNAEKKKIGMYYTTPLHEFRMKCHLCDNYYVIRTDPKNFDYELVEGCSRQELRFDPTDIAQIGAVDRGFTQKLAADAMFKKEHEAEDKDKAATEEGRVDKLEWIQERMRDDFTANSFLRAQFRNEKKSLNETRARDANLRDKLSIGTTQLLPETEEDRRIASMMTRYRDTKTHDDHLESSRDRIESRRIFRRPEETDTPSTSSGSSGGAVPSASERLKATMKAERDKRINASFSTAGTSSATQKLLGIKRKSASSLGVQIKKAAPENSSLQDEEPAVEKPNISNPISLIAQEYGNSSDDSD | not soluble
MGSDKIHHHHHHMARLAKIKVKTLEQRLWDTADALRGNQEPSEYKHVVLGLVFLKYISDRFEERRRAIETSLSDPNSEEYIPNEARRSEFLEDRDEYASHNVFWVPELARWGYLQDNAKLPKIGQQLDQAMDLIEKENPIIRGVLPRNYGREGLDKSRLGQLVDLIGSIGFTESDDHGSDDVLGRVYEYFLGQFAGKETGKDAGAFYTPRSVVKTLVEMLEPFHGRVYDPACGSGGMFVQSAEFVTAHGGERTDISVYGQEFTDTTWKLAKMNLALRGIEADLGDRSADSFTQDLHRDLRADFIIANPPFNVSNWWNAKLADDPRWKYGTPPEGNANFAWVQHFLHHLSPKGTAGFVLSNGSLSSKSSGEGEIRRKLVEADLVDCIVAMPDKLFFNTGIPVSLWFISKERHGNGHRARQGEVLFIDASKLGRMENRRLRVLDDDRDIAKIAGAYHAWRNHDGGYEDVPGFVVAATLEEIRQHDFVLTPGRYVGTKEAEADWEPVEDKIARLTGELYAEFERGRKLEEVVRERLGGLNAD | not soluble
MGSDKIHHHHHHMSVVNKIIGVCRFSYLGLGGFRINEAGAEEAAKALYAADRMTLRFAYFETICLPSLAAQTDSDFTFVALIADTMPLPFRQRLKRLTETYPFLRIAVLESTGPYNSTRRAFSRGLDGQETDFITGFRLDDDDAVSVDYIARTREAADTLITLGWATKDDPAAVCFHRGIYWDMKRPDAPFWDYSEIQPLGLASAMVHHRDSRQNIYRWNHRKLASKVRCWTDPSDVMFLRTLHDHNDSGRVMPRDAEQIPDEQARRLLKDRFGLNPKRLLSTMDRVHGGTDAARQWAAETREDPFGKDGDA | not soluble
VTTRQEKAAQTRRDLLDAARVVFERNGYLNATITDITTEAGKAAGSFYNHFDGKEALLLALADDIGDDADALITTSPDDLRNLGPHLAVFWQLQSRHRPVMAALRDAALVDPEFAQRMHDFGI | not soluble
